Earlier results as cited in publication PMC7519539.
pKd: −log10 of the molar value.

Target: RNA polymerase core (E) (Escherichia coli) (UniProt P0A7Z4)

Chain of sigma38 (P13445 whole entry): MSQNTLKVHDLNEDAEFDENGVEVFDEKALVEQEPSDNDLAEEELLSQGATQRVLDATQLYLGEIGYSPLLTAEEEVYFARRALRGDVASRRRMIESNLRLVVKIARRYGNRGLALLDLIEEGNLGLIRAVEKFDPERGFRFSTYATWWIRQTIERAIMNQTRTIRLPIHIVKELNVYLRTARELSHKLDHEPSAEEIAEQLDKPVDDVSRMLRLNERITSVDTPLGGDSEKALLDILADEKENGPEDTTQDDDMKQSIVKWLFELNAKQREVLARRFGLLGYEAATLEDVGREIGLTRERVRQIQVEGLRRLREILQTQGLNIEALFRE

pKd: 8.37
Substance: sigma38 (from UniProt P13445)
